# Experimental data reported in patent US10654925B2, “Anti-marinobufagenin antibodies and uses thereof” (priority 2018, dated 2020).
# B1: H3L2: humanized anti-MBG antibody, VH H3 (SEQ ID NO: 11) with VL L2 (SEQ ID NO: 13) (antibody, V domains shown)
# VH: EVQLQESGPGLVKPSETLSLTCTVSGDSITSGYWNWIRQPPGKGLEYMGYISYSGTTYYNPSLKSRITISRDTSKNQYSLKLSSVTAADTAVYYCARARYGYGFDYWGQGTLVTVSS
# VL: DVVMTQSPLSLPVTLGQPASISCRSSQSIVHSNRNTYLEWYQQRPGQSPRLLIYKVSNRFSGVPDRFSGSGSGTDFTLKISRVEAEDVGVYYCFQGSHVPLTFGGGTKVEIK
# modifications: Humanized VH sequence; Humanized VL sequence
# Key:
# [1] = tested on: pregnant Sprague-Dawley rats; assay: DOCA/saline rat model of pre-eclampsia; type: in vivo; conditions: tail cuff; baseline; antibodies 2.2 mg/kg/d i.p. days 16-18 in PDS (DOCA/saline) rats; MBG 7.65 μg/kg/d in normal pregnant rats (NPM); N = 10
# [2] = tested on: human umbilical cord venous endothelial cells (HUVEC); assay: Reversal of MBG inhibition of HUVEC cell proliferation (3H-thymidine); type: cell-based; conditions: MBG 2 nM, antibody 2.5-10 μg/mL, 48 hr; FIG. 3b
# Description: MBG (2 nM) was incubated with an antibody (20 μg/mL in FIG. 3a with human anti-MBG mAbs, or varying concentrations (2.5-10 μg/mL) in FIG. 3b with humanized anti-MBG mAbs) prior to addition to cultured human umbilical cord venous endothelial cells (HUVEC). After 48 hr, DNA synthesis was assessed by incorporation of ^3H-thymidine.
# HUVEC cells in endothelial cell growth medium were plated onto 96-well plates. The next day, the cells were pretreated with various antibodies (2.5-20 μg/mL) and then incubated with 2 nM MBG for 48 hr. [^3H]-Thymidine was added to each well. [^3H]-Thymidine-labeled DNA was assayed by harvesting the cells and assaying for ^3H using a PerkinElmer Wallac Tailux liquid scintillation counter. […] Means were tested for significance using Student's t-test.
# [3] = ELISA avidity estimate on MBG-BSA; type: binding; conditions: wells coated with 2 μg/ml MBG-BSA; IgG
# Description: (§1) The avidity of anti-MBG antibodies for MBG was estimated in an ELISA. Wells of a microtiter plate were coated with 2 μg/ml of either MBG-bovine serum albumin (BSA) or MBG-keyhole limpet hemocyanin (KLH). The wells were then blocked with 1% BSA. A test IgG antibody at varying concentrations (typically from about 0.0001 nM to about 25 nM) was added to the wells. The test IgG bound to immobilized MBG was detected with an anti-human Fc, horseradish peroxidase (HRP)-conjugated secondary antibody (Jackson ImmunoResearch). After washing of the wells, an appropriate HRP reagent (e.g., TMB ultra, Thermo Fisher) was added to the wells. Optical density (OD) at 450 nm was measured by a microplate reader. The concentration of test antibody at the midpoint of the binding curve is an estimate of avidity for MBG.
# [4] = ELISA avidity estimate on MBG-KLH; type: binding; conditions: wells coated with 2 μg/ml MBG-KLH; IgG
# Description: as §1
molecule,measurement,setting,value
B1,Blood Pressure-Initial,[1],104 ± 5 mm Hg
same,"MBG inhibition of HUVEC cell proliferation, humanized mAbs",[2],significantly reduced
same,"Estimated avidity (KA) (antibody concentration at 50% maximal binding to antigen, or EC50), Antigen 1 (MBG-BSA)",[3],0.6 nM
same,"Estimated avidity (KA) (antibody concentration at 50% maximal binding to antigen, or EC50), Antigen 2 (MBG-KLH)",[4],1.5 nM
